This is an account of results in patent US20220340678A1 (MURAL ONCOLOGY, published 2022).

In general, Kd refers to the free concentration of one partner at which half of the binding sites on the other are occupied at equilibrium, for simple one-to-one binding. As a reminder, the koff is the first-order rate constant of dissociation. As usually defined, the kon is the rate constant with which the complex forms.

Assay [1] has as its target T1, histidine-tagged human uPAR (Sino#10925-H08H) (human, UniProt Q03405 23-303).
T1 construct: also called uPAR-His
The experiment in a line: BLI (Octet), antibody on anti-human Fc sensor, uPAR from 50 nM.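 Also: antibodies captured at 10 µg/mL on anti-human Fc biosensors, with uPAR as analyte in a twofold dilution series from 50 nM downward.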

Assay [2] deals with T2, Recombinant mouse uPAR-Fc (R&D Systems, Cat. No. 531-PA-100) (mouse, UniProt P35456 24-297, limits assumed).
T2 construct: not shown: Fc of the bought fusion (captured with the human antibody capture kit); not described
T2 sequence (looked up): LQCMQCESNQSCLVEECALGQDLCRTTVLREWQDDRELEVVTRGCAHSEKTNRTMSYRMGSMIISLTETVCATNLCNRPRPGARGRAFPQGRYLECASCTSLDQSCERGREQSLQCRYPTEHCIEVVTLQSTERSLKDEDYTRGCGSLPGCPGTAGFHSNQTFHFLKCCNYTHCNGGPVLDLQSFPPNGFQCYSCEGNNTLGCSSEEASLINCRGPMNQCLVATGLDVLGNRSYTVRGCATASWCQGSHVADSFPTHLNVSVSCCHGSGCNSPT
Briefly: SPR (Biacore), mouse uPAR-Fc captured on anti-human antibody chip.

For assay [3], the target named is IL-2/IL-15 receptor on primary mouse splenocytes (mouse). Briefly: cell-based or functional assay.
For another assay, the target named is T3, IL-12 p40 C177S variant (human, UniProt P29460 23-328).
T3 sequence: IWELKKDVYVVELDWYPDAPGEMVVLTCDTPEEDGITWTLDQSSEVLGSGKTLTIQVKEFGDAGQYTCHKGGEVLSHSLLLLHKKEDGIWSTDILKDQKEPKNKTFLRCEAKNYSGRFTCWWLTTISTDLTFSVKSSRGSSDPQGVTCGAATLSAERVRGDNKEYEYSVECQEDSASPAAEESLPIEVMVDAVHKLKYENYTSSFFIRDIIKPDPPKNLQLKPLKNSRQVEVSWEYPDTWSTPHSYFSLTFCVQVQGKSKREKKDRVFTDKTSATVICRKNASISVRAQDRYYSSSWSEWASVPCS
Briefly: BLI (Octet), p35 C74 variant against p40 C177S. For orientation: Biolayer interferometry detects binding as a change in optical thickness at a sensor tip.

In a further assay the target is T4, IL-12 p40 C177F variant (human, UniProt P29460 23-328).
T4 sequence: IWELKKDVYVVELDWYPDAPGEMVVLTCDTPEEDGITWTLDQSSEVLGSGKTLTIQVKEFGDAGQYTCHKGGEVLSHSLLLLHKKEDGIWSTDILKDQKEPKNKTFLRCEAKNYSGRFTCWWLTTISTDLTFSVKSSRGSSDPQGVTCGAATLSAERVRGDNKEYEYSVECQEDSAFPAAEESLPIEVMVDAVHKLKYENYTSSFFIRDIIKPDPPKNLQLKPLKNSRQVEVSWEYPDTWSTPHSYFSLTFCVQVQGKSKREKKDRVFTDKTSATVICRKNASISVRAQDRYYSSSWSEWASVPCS
Briefly: BLI (Octet), p35 C74 variant against p40 C177F.

Assay [4] addresses Recombinant human uPAR his (R&D Systems, 807-UK-100/CF) (human, UniProt Q03405 23-303, biotinylated (sites not given)). The experiment in a line: SPR (Biacore), biotinylated human uPAR his on streptavidin chip.

B1: M43-Chimeric (antibody, V domains shown)
VH: QVQLQQSGAELARPGASVNLSCKASGYTFTSYGISWVKQRTGQGLEWIGEIYPRSGNTYYNEKFKGKATLTADKSSRTAYMELRSLTSEDSAVYFCAGKDYGSTYADYWGQGTTLTVSS
VL: QIVLTQSPAIMSASPGEKVTMTCSASSSVSSRYLHWYQQKSGASPKLWIYGTSNLASGVPARFSGSGSGTSYSLTINSVEAEDAATYYCQQYHSDPLTFGAGTKLELK
On to B1, for which, in assay [1], the affinity, expressed as Kd, was 15.1 nM; the koff was found to be 0.00606 s⁻¹; the kon came out at 402000 M⁻¹ s⁻¹.

B2: M43-H1bm5/L4 (antibody, V domains shown)
VH: QVQLVQSGAEVAKPGASVNLNCKASGYTFTSYGISWVRQRTGQGLEWIGEIYPRSGNTYYNEKFKGKVTLTTDKSTRTAYMELRSLTSEDTAVYYCAGKDYGSTYADYWGQGTTLTVSS
VL: QIVLTQSPATLSASPGERVTMTCSASSSVSSRYLHWYQQKSGASPRLWIYGTSNLASGVPARFSGSGPGTSYTLTISSVEPEDAATYYCQQYHSDPLTFGQGTKLELKT
notes: also called humanized M43
In assay [1], B2 displayed a Kd of 15.9 nM, a koff of 0.00658 s⁻¹ and a kon of 415000 M⁻¹ s⁻¹.

B3: M43-H4bm5/L4 (antibody, V domains shown)
VH: QVQLQQSGAEVAKPGASVNLNCKASGYTFTSYGISWVRQRTGQGLEWIGEIYPRSGNTYYNEKFKGKATLTADKSTRTAYMELRSLTSEDTAVYFCAGKDYGSTYADYWGQGTTLTVSS
VL: QIVLTQSPATLSASPGERVTMTCSASSSVSSRYLHWYQQKSGASPRLWIYGTSNLASGVPARFSGSGPGTSYTLTISSVEPEDAATYYCQQYHSDPLTFGQGTKLELKT
notes: also called humanized M43
Take B3: in assay [1], the Kd amounted to 14.7 nM, the koff came out at 0.00666 s⁻¹ and the on-rate constant (kon) came to 454000 M⁻¹ s⁻¹.

B4: Mouse uPA-ATF:Mouse cpIL-2:IL-2Ra:His6 (other)
chain: GSVLGAPDESNCGCQNGGVCVSYKYFSRIRRCSCPRKFQGEHCEIDASKTCYHGNGDSYRGKANTDTKGRPCLAWNAPAVLQKPYNAHRPDAISLGLGKHNYCRNPDNQKRPWCYVQIGLRQFVQECMVHDCGGSGGSKSFQLEDAENFISNIRVTVVKLKGSDNTFECQFDDESATVVDFLRRWIAFCQSIISTSPQGGSSSTQQQQQHLEQLLMDLQELLSRMENYRNLKLPRMLTFKFYLPKQATELKDLQCLEDELGPLRHVLDLTQGSGGGSELCLYDPPEVPNATFKALSYKNGTILNCECKRGFRRLKELVYMRCLGNSWSSNCQCTSNSHDKSRKQVTAQLEHQKEQQTTTDMQKPTQSMHQENLTGHCREPPPWKHEDSKRIYHFVEGQSVHYECIPGYKALQRGPAISICKMKCGKTGWTQPQLTCVDHHHHHH
Consider B4, for which, in assay [2], the Kd is 0.14 nM, the koff stood at 0.0002 s⁻¹ and the kon turned out to be 1.4e+06 M⁻¹ s⁻¹. In addition, in assay [3], the “pSTAT5 EC50, mouse NK cells” value turned out to be 35 nM; the “pSTAT5 EC50, mouse Tregs” value came to 22 nM; the “pSTAT5 EC50, mouse memory CD8 T cells” value came to 38 nM.

B5: IL-12 p35 C74D variant (other)
chain: RNLPVATPDPGMFPCLHHSQNLLRAVSNMLQKARQTLEFYPCTSEEIDHEDITKDKTSTVEACLPLELTKNESDLNSRETSFITNGSCLASRKTSFMMALCLSSIYEDLKMYQVEFKTMNAKLLMDPKRQIFLDQNMLAVIDELMQALNFNSETVPQKSSLEEPDFYKTKIKLCILLHAFRIRAVTIDRVMSYLNAS
With B5, in the assay with IL-12 p40 C177S variant, the Kd was 57.1 nM, the koff worked out at 0.001 s⁻¹ and the kon turned out to be 17600 M⁻¹ s⁻¹. Besides, in the assay with IL-12 p40 C177F variant, the Kd was found to be 60.2 nM, the koff amounted to 0.000719 s⁻¹ and the kon came out at 11900 M⁻¹ s⁻¹.

B6: IL-12 p35 C74Y variant (other)
chain: RNLPVATPDPGMFPCLHHSQNLLRAVSNMLQKARQTLEFYPCTSEEIDHEDITKDKTSTVEACLPLELTKNESYLNSRETSFITNGSCLASRKTSFMMALCLSSIYEDLKMYQVEFKTMNAKLLMDPKRQIFLDQNMLAVIDELMQALNFNSETVPQKSSLEEPDFYKTKIKLCILLHAFRIRAVTIDRVMSYLNAS
Regarding B6, in the assay with IL-12 p40 C177S variant, binding was put at a Kd of 23.2 nM, the koff is 0.000411 s⁻¹ and the kon was 17700 M⁻¹ s⁻¹. In addition, in the assay with IL-12 p40 C177F variant, the Kd was found to be 23.8 nM, the koff came to 0.000298 s⁻¹ and the on-rate (kon) was 12500 M⁻¹ s⁻¹.

B7: IL-12 p35 C74K variant (other)
chain: RNLPVATPDPGMFPCLHHSQNLLRAVSNMLQKARQTLEFYPCTSEEIDHEDITKDKTSTVEACLPLELTKNESKLNSRETSFITNGSCLASRKTSFMMALCLSSIYEDLKMYQVEFKTMNAKLLMDPKRQIFLDQNMLAVIDELMQALNFNSETVPQKSSLEEPDFYKTKIKLCILLHAFRIRAVTIDRVMSYLNAS
Consider B7, for which, in the assay with IL-12 p40 C177S variant, the Kd was 19.6 nM, the koff turned out to be 0.000508 s⁻¹ and the kon turned out to be 25900 M⁻¹ s⁻¹. Also, in the assay with IL-12 p40 C177F variant, the Kd turned out to be 18.4 nM, the koff amounted to 0.000295 s⁻¹ and the kon was found to be 16000 M⁻¹ s⁻¹.

B8: IL-12 p35 C74W variant (other)
chain: RNLPVATPDPGMFPCLHHSQNLLRAVSNMLQKARQTLEFYPCTSEEIDHEDITKDKTSTVEACLPLELTKNESWLNSRETSFITNGSCLASRKTSFMMALCLSSIYEDLKMYQVEFKTMNAKLLMDPKRQIFLDQNMLAVIDELMQALNFNSETVPQKSSLEEPDFYKTKIKLCILLHAFRIRAVTIDRVMSYLNAS
On to B8, for which, in the assay with IL-12 p40 C177S variant, the affinity, expressed as Kd, was 27 nM; the off-rate (koff) is 0.000432 s⁻¹; the kon came to 16000 M⁻¹ s⁻¹. Further, in the assay with IL-12 p40 C177F variant, the Kd was 25.4 nM, the koff is 0.000291 s⁻¹ and the kon is 11500 M⁻¹ s⁻¹.

B9: Human uPA-ATF:Human cpIL-2:IL-2Ra:His6 (other)
chain: SNELHQVPSNCDCLNGGTCVSNKYFSNIHWCNCPKKFGGQHCEIDKSKTCYEGNGHFYRGKASTDTMGRPCLPWNSATVLQQTYHAHRSDALQLGLGKHNYCRNPDNRRRPWCYVQVGLKPLVQECMVHDCAGGSGGSKNFHLRPRDLISNINVIVLELKGSETTFMCEYADETATIVEFLNRWITFSQSIISTLTGGSSSTKKTQLQLEHLLLDLQMILNGINNYKNPKLTRMLTFKFYMPKKATELKHLQCLEEELKPLEEVLNLAQGSGGGSELCDDDPPEIPHATFKAMAYKEGTMLNCECKRGFRRIKSGSLYMLCTGNSSHSSWDNQCQCTSSATRNTTKQVTPQPEEQKERKTTEMQSPMQPVDQASLPGHCREPPPWENEATERIYHFVVGQMVYYQCVQGYRALHRGPAESVCKMTHGKTRWTQPQLICTGHHHHHH
notes: also called 98
Regarding B9, in assay [4], the Kd came to 2.2 nM, the koff is 0.001 s⁻¹ and the kon was determined as 460000 M⁻¹ s⁻¹.

B10: Mouse cpIL-2:IL-2Ra (other)
chain: SSKSFQLEDAENFISNIRVTVVKLKGSDNTFECQFDDESATVVDFLRRWIAFCQSIISTSPQGGSSSTQQQQQHLEQLLMDLQELLSRMENYRNLKLPRMLTFKFYLPKQATELKDLQCLEDELGPLRHVLDLTQGSGGGSELCLYDPPEVPNATFKALSYKNGTILNCECKRGFRRLKELVYMRCLGNSWSSNCQCTSNSHDKSRKQVTAQLEHQKEQQTTTDMQKPTQSMHQENLTGHCREPPPWKHEDSKRIYHFVEGQSVHYECIPGYKALQRGPAISICKMKCGKTGWTQPQLTCVD
Turning to B10, in assay [3], the “pSTAT5 EC50, mouse NK cells” value amounted to 19 nM; the “pSTAT5 EC50, mouse Tregs” value is 22 nM; the “pSTAT5 EC50, mouse memory CD8 T cells” value was 23 nM.
